Assays:
[1] = tested on: O=[N+]([O-])c1ccc(OP(=O)(O)O)cc1; assay: purified protein, by the assay type
[2] = tested on: Cc1cc(=O)oc2c(F)c(OP(=O)(O)O)c(F)cc12; assay: purified protein, by the assay type
[3] = other: pNPP, 25 mM HEPES pH 7.5, 30 °C, mean of 3 ± SD
[4] = other: DiFMUP, 0.5 nM enzyme, pH 7.5, 30 °C, mean of 3 ± SD

Substance: CgCdc14 (Colletotrichum gloeosporioides)
- Km [1, 3]: 30 ± 4 mM
- kcat [1, 3]: 0.6 ± 0.1 s⁻¹
- kcat/Km [1, 3]: 20 ± 2 M⁻¹ s⁻¹
- Km [2, 4]: 0.078 ± 0.012 mM
- kcat [2, 4]: 7 s⁻¹
- kcat/Km [2, 4]: 86000 ± 6100 M⁻¹ s⁻¹

Substance: MoCdc14 (Pyricularia oryzae 70-15)
- Km ([1]; pH 7.5, 30.0 °C): 25 ± 1 mM
- Km ([2]; pH 7.5, 30.0 °C): 0.044 ± 0.011 mM
